System: Escherichia coli TOP10
Experiment: shrunken log2 fold change of peptide-encoding DNA abundance (4.5 h post-induction vs induction); higher = less antimicrobial activity (less host growth inhibition)
Conditions: time post-induction: 4.5 h; library: site-saturation at positions 5, 18, 19, 20
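Also: peptides expressed intracellularly from a pBAD plasmid library in pooled LB shake-flask culture, induced with 0.3% L-arabinose, DNA abundance read by NGS, three biological replicates, DESeq2 with apeglm shrinkage.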

Sequence	shrunken log2 fold change
RRIRFRPPRLPRPRPRPCFQPRP	-0.227
RRIRGRPPRLPRPRPRPPWTPRP	0.68
RRIRGRPPRLPRPRPRPPPHPRP	1.26
RRIRARPPRLPRPRPRPLVHPRP	-0.139
RRIRIRPPRLPRPRPRPCIMPRP	-0.466
RRIRGRPPRLPRPRPRPYNIPRP	-0.2
RRIRHRPPRLPRPRPRPNFIPRP	-0.0658
RRIRQRPPRLPRPRPRPHDEPRP	-0.158
RRIRARPPRLPRPRPRPTCAPRP	0.863
RRIRCRPPRLPRPRPRPWNDPRP	0.00383
RRIRHRPPRLPRPRPRPRDNPRP	0.0766
RRIRIRPPRLPRPRPRPFDVPRP	-0.296
RRIRGRPPRLPRPRPRPELCPRP	0.18
RRIRNRPPRLPRPRPRPCHHPRP	-1.21
RRIRFRPPRLPRPRPRPHQDPRP	-0.0339
RRIRPRPPRLPRPRPRPTVKPRP	-0.00591
RRIRMRPPRLPRPRPRPCFEPRP	0.286
RRIRDRPPRLPRPRPRPFHAPRP	-0.108
RRIRFRPPRLPRPRPRPCLDPRP	-0.35
RRIRQRPPRLPRPRPRPVYWPRP	0.0694

Sequence	shrunken log2 fold change
RRIRSRPPRLPRPRPRPLAAPRP	0.562
RRIRPRPPRLPRPRPRPTNMPRP	-0.298
RRIRCRPPRLPRPRPRPQHTPRP	-0.0159
RRIRFRPPRLPRPRPRPYLSPRP	-1.86
RRIRIRPPRLPRPRPRPHMFPRP	-1
RRIRCRPPRLPRPRPRPQHRPRP	-0.246
RRIRARPPRLPRPRPRPGLTPRP	0.686
RRIRIRPPRLPRPRPRPVMQPRP	-0.00187
RRIRQRPPRLPRPRPRPNQTPRP	-0.0346
RRIRHRPPRLPRPRPRPYVRPRP	0.017
RRIRYRPPRLPRPRPRPVGIPRP	0.177
RRIRQRPPRLPRPRPRPKCVPRP	-0.018
RRIRFRPPRLPRPRPRPAGFPRP	0.0553
RRIRMRPPRLPRPRPRPVEFPRP	-0.0638
RRIRKRPPRLPRPRPRPHLGPRP	-0.00957
RRIRDRPPRLPRPRPRPERVPRP	0.388
RRIRARPPRLPRPRPRPFHYPRP	-0.371
RRIRERPPRLPRPRPRPAQWPRP	0.184
RRIRLRPPRLPRPRPRPWMPPRP	-0.0741
RRIRARPPRLPRPRPRPKSYPRP	-0.145

Sequence	shrunken log2 fold change
RRIRTRPPRLPRPRPRPRGRPRP	0.593
RRIRPRPPRLPRPRPRPLVSPRP	0.00371
RRIRNRPPRLPRPRPRPGYNPRP	-0.198
RRIRHRPPRLPRPRPRPKHVPRP	-0.15
RRIRFRPPRLPRPRPRPMAYPRP	-0.0672
RRIRVRPPRLPRPRPRPCFTPRP	-0.0879
RRIRWRPPRLPRPRPRPGSEPRP	0.385
RRIRNRPPRLPRPRPRPCDKPRP	0.14
RRIRPRPPRLPRPRPRPWFYPRP	-0.543
RRIRTRPPRLPRPRPRPALKPRP	0.206
RRIRLRPPRLPRPRPRPEDSPRP	-0.0351
RRIRSRPPRLPRPRPRPRIDPRP	0.0938
RRIRIRPPRLPRPRPRPMMSPRP	-0.00118
RRIRLRPPRLPRPRPRPPHFPRP	0.437
RRIRPRPPRLPRPRPRPAVMPRP	0.215
RRIRMRPPRLPRPRPRPEKRPRP	0.0458
RRIRHRPPRLPRPRPRPCSTPRP	-0.337
RRIRVRPPRLPRPRPRPCCRPRP	0.0482
RRIRCRPPRLPRPRPRPTNTPRP	-0.364
RRIRVRPPRLPRPRPRPWWDPRP	0.00445

Reference: the supplement of paper PMC9112550, “Optimization of the antimicrobial peptide Bac7 by deep mutational scanning” (BMC Biology, 2022)
